Data from the supplement of paper PMC10724198.
± gives the standard deviation of the averaged measurements.

System: Saccharomyces cerevisiae
Assay: protein stability index of tFT-peptide fusion (C-terminal peptide) (PSI (0-1 scale)); higher = more stable (slower turnover)
Conditions: temperature: 30 C
Description: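 MPS profiling in S. cerevisiae of the yeast C-terminome library: the last 12 aa of each annotated ORF are fused to the C-terminus of a sfGFP-mCherry timer, after a GGGS linker. Cells are FACS-sorted into 8 mCherry/sfGFP bins and deep-sequenced. PSI runs from 0 (unstable) to 1 (stable); wild type and das1Δ backgrounds, two technical replicates each.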

[1] = genetic background: das1 deletion

Sequence	protein stability index [1]	protein stability index (genetic background: wild type)
SQLLLFGFGAMV [MDM32 C-terminal 12 aa]	0.6998 ± 0.0031	0.705 ± 0.031
LDNIERDANDLS [LAM4 C-terminal 12 aa]	0.695 ± 0.0073	0.678 ± 0.008
LNFFAEETLDFE [EAT1 C-terminal 12 aa]	0.734 ± 0.033	0.689 ± 0.033
TDVKKFIHELCE [TRP3 C-terminal 12 aa]	0.69 ± 0.014	0.679 ± 0.034
LRNKPFWENKRL [IPL1 C-terminal 12 aa]	0.702 ± 0.019	0.696 ± 0.015
VYGRNGNESHST [YGR050C C-terminal 12 aa]	0.701 ± 0.019	0.689 ± 0.017
LVPEEEEETKDR [GRX5 C-terminal 12 aa]	0.7214 ± 0.0068	0.698 ± 0.033
LREMMNKDFAGL [PSD2 C-terminal 12 aa]	0.708 ± 0.02	0.698 ± 0.0081
QKDSRGKKKIKK [YMR114C C-terminal 12 aa]	0.691 ± 0.026	0.63611 ± 0.00024
GTAASEPTPITK [ATP15 C-terminal 12 aa]	0.7295 ± 0.0065	0.681 ± 0.017
SMALRTVSILEN [YGL152C C-terminal 12 aa]	0.683 ± 0.011	0.649 ± 0.025
KYFLRMVYPMKV [ESBP6 C-terminal 12 aa]	0.4888 ± 0.0038	0.404 ± 0.031
GCDLDISYAKRL [HRB1 C-terminal 12 aa]	0.7155 ± 0.0028	0.695 ± 0.035
YSLLIHLSKKKS [YNR005C C-terminal 12 aa]	0.668 ± 0.025	0.6119 ± 0.0036
IITGSTSTSSSN [MED8 C-terminal 12 aa]	0.671 ± 0.017	0.7067 ± 0.00076
GNAIREIKTYKY [GLY1 C-terminal 12 aa]	0.687 ± 0.035	0.658 ± 0.052
YAVFTVLFSIIF [SPS2 C-terminal 12 aa]	0.297 ± 0.013	0.295 ± 0.0078
VVGRYMRSGLKK [NOP1 C-terminal 12 aa]	0.6704 ± 0.005	0.682 ± 0.028
IHRSVSELSRLH [MBB1 C-terminal 12 aa]	0.705 ± 0.023	0.689 ± 0.025
DENDKVIAIKVV [VPS25 C-terminal 12 aa]	0.5736 ± 0.00061	0.525 ± 0.011
ITSLKSDEYLVQ [RET2 C-terminal 12 aa]	0.73 ± 0.046	0.724 ± 0.085

Sequence	protein stability index [1]	protein stability index (genetic background: wild type)
PVVFHSGPVVWK [YLR415C C-terminal 12 aa]	0.72 ± 0.034	0.6969 ± 0.0058
DYSRRVLRLMNE [WSC4 C-terminal 12 aa]	0.7058 ± 0.0028	0.5834 ± 0.0049
DHLHNLAQYWRT [VPS34 C-terminal 12 aa]	0.697 ± 0.015	0.703 ± 0.038
LIRKMYYKNLKK [SSL2 C-terminal 12 aa]	0.693 ± 0.05	0.757 ± 0.028
SANGYKRRRYGN [YHC1 C-terminal 12 aa]	0.716 ± 0.019	0.732 ± 0.055
DIISAFEEYKNA [SEC3 C-terminal 12 aa]	0.714 ± 0.036	0.685 ± 0.026
SDDQILREFLYS [IRE1 C-terminal 12 aa]	0.726 ± 0.004	0.7 ± 0.025
GYKDRFGNLNVM [ATP7 C-terminal 12 aa]	0.7037 ± 0.0041	0.687 ± 0.02
GFQTGSASKASA [RPL37A C-terminal 12 aa]	0.71864 ± 0.00033	0.712 ± 0.019
IVHKSNFINNKK [OXA1 C-terminal 12 aa]	0.7224 ± 0.0042	0.6943 ± 0.0055
PSFSNSQWRIIF [YOR169C C-terminal 12 aa]	0.714 ± 0.021	0.694 ± 0.016
ELDEIANSLENL [TPM2 C-terminal 12 aa]	0.694 ± 0.019	0.683 ± 0.01
LEQYEKTLVHDD [GCV3 C-terminal 12 aa]	0.6942 ± 0.00074	0.678 ± 0.05
KPDSTAVRNEDE [YNR065C C-terminal 12 aa]	0.7 ± 0.012	0.66 ± 0.072
HFYDRTNDLTNL [YNL144C C-terminal 12 aa]	0.736 ± 0.024	0.68 ± 0.039
FSDWKNNNGPHK [IBA57 C-terminal 12 aa]	0.701 ± 0.02	0.71 ± 0.062
SFALVFKISAEV [YAR053W C-terminal 12 aa]	0.448 ± 0.046	0.489 ± 0.022
LLLPITSSLLFI [MIN4 C-terminal 12 aa]	0.618 ± 0.011	0.62 ± 0.021
YSSRRWRLDTHD [RTC4 C-terminal 12 aa]	0.763 ± 0.034	0.752 ± 0.058
RQVLDREGLRFG [TRS31 C-terminal 12 aa]	0.693 ± 0.027	0.705 ± 0.0087
LASDFIGRGYDD [WTM2 C-terminal 12 aa]	0.6962 ± 0.0068	0.678 ± 0.011

Sequence	protein stability index [1]	protein stability index (genetic background: wild type)
PAAKGKNLSFKR [RRP6 C-terminal 12 aa]	0.7188 ± 0.0035	0.709 ± 0.015
PSYAVCDNILVT [YOL013W-B C-terminal 12 aa]	0.67 ± 0.04	0.653 ± 0.017
LDTLQTASQYLP [VID22 C-terminal 12 aa]	0.7056 ± 0.0017	0.749 ± 0.079
LELVLKNKEMEN [RSA3 C-terminal 12 aa]	0.684 ± 0.016	0.706 ± 0.092
GVRKEFYELKRD [PRE7 C-terminal 12 aa]	0.69519 ± 5.6e-05	0.693 ± 0.054
YFNLFTDLSGSK [NEL1 C-terminal 12 aa]	0.73 ± 0.012	0.72 ± 0.043
ASYIQSREICLV [GNT1 C-terminal 12 aa]	0.6464 ± 0.006	0.5859 ± 0.0036
PIKLKSDEEMII [YFL040W C-terminal 12 aa]	0.707 ± 0.025	0.6724 ± 0.0042
EFAKCEFETPAV [CKB1 C-terminal 12 aa]	0.722 ± 0.011	0.74 ± 0.0048
IFSSLVHYCNAG [LST4 C-terminal 12 aa]	0.729 ± 0.013	0.73 ± 0.0085
RALVDAIQLRGV [CGI121 C-terminal 12 aa]	0.68 ± 0.024	0.663 ± 0.0088
VMLNSVSISLNK [COG5 C-terminal 12 aa]	0.711 ± 0.014	0.6577 ± 0.00017
DVEDVERVSKKI [CDC34 C-terminal 12 aa]	0.704 ± 0.057	0.67 ± 0.032
LKHNGQRKLAST [ANT1 C-terminal 12 aa]	0.685 ± 0.034	0.701 ± 0.033
DPKLYFDATILS [TDA3 C-terminal 12 aa]	0.703 ± 0.025	0.691 ± 0.013
VTTTFDKVHQDW [LEU1 C-terminal 12 aa]	0.715 ± 0.017	0.714 ± 0.058
HPTSAEELVTMR [GLR1 C-terminal 12 aa]	0.7175 ± 0.007	0.693 ± 0.071
ESDDDMGFGLFD [RPP0 C-terminal 12 aa]	0.7176 ± 0.002	0.717 ± 0.016
SRIELELKNIGL [ECM29 C-terminal 12 aa]	0.684 ± 0.0096	0.762 ± 0.0041
LQVKAVRAKLDE [ALD4 C-terminal 12 aa]	0.699 ± 0.031	0.68 ± 0.037
MDETIAPLVGCL [YEL008W C-terminal 12 aa]	0.724 ± 0.012	0.701 ± 0.038

Sequence	protein stability index [1]	protein stability index (genetic background: wild type)
DIIKQGVNDIIV [ARD1 C-terminal 12 aa]	0.672 ± 0.015	0.717 ± 0.033
LSATIFLRGFLL [YIM2 C-terminal 12 aa]	0.675 ± 0.029	0.649 ± 0.031
SLSARKINMRKV [KRE9 C-terminal 12 aa]	0.705 ± 0.033	0.644 ± 0.014
SELENKFSNQES [FPY1 C-terminal 12 aa]	0.7048 ± 0.0039	0.735 ± 0.053
LSQLVKKKPRRH [HIF1 C-terminal 12 aa]	0.6885 ± 0.0039	0.729 ± 0.073
ATGGKKTTFADE [RPA14 C-terminal 12 aa]	0.711 ± 0.054	0.667 ± 0.036
GAAVRLTGSDRV [RPN7 C-terminal 12 aa]	0.685 ± 0.007	0.679 ± 0.035
NFFESYRTISCL [YPL038W-A C-terminal 12 aa]	0.6408 ± 0.0042	0.3261 ± 0.0021
FIHDVFFVYFRF [YDL094C C-terminal 12 aa]	0.176 ± 0.0076	0.17 ± 0.006
TEMATDASARMV [TPO4 C-terminal 12 aa]	0.687 ± 0.0097	0.682 ± 0.0089
MLQYLVFVYIEK [YCR085W C-terminal 12 aa]	0.182 ± 0.0095	0.21 ± 0.016
FINKIYHQKVNL [TMN3 C-terminal 12 aa]	0.707 ± 0.0078	0.781 ± 0.004
EVYLQAIDLIDC [PIR3 C-terminal 12 aa]	0.6774 ± 0.0063	0.6614 ± 0.005
IPMTLTTLSTVF [UPA2 C-terminal 12 aa]	0.619 ± 0.0083	0.628 ± 0.012
TIAIGKIVKIAE [SUP35 C-terminal 12 aa]	0.7085 ± 0.0052	0.685 ± 0.013
IFRDYFYKSPSP [PIG1 C-terminal 12 aa]	0.739 ± 0.0098	0.763 ± 0.034
EKQSSTASEKAA [THI7 C-terminal 12 aa]	0.6813 ± 0.0064	0.704 ± 0.029
NKVEENLEGLYL [RPT2 C-terminal 12 aa]	0.6934 ± 0.0063	0.671 ± 0.015
NSLIFDAFNQIR [CDH1 C-terminal 12 aa]	0.732 ± 0.029	0.736 ± 0.054
